In the nanobody polyreactivity screen of Harvey et al. (2022):

Assay: yeast display, Sf9 membrane polyspecificity reagent, FACS + sequencing; frameworks hold sequencing errors
Outline: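 A nanobody's polyreactivity label depends on the gate it was sorted from. Yeast display cells were stained with 10% biotinylated, detergent-solubilized Sf9 membrane reagent for 1 hour at 4 °C, enriched on streptavidin microbeads and sorted by FACS. The low and high (top ~1%) gates were set on anti-HA fluorescence for expression and streptavidin fluorescence for reagent binding.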

## QVQLVESGGGLVQAGGSLRLSCAASGFTLIHYAMGWYRQAPGKERELVAGITTSGGSTYYADSVKGRFTISRDNAKNTGYLQMNSLKPEDTAVYYCNAEYRRRPKLGDEDEYWGQGTQVTVSS
  polyreactivity (PSR sort gate): high polyreactivity

## QVQLVESGGGLVQAGGSLRLSCAASGFTLKRYAMGWYRQAPGKERELVAAISTGGSTYYADSVKGRFTISRDNAKNTVYLQMNSLKPEDTAVYYCAAKRYNRLRSYRYSDREDYWGQGTQVTVSS
  polyreactivity (PSR sort gate): high polyreactivity

## QVQLVESGGGLVQAGGSLRLSCAASGFTLKYNTMGWYRPAPGKERELVAAISRIGGRTYYADSVKGRFTISRDYAKNTVYLHKNSLKPEDTAVYYCAAVYRVCWRTYGYWGQGTQVTVSS
  polyreactivity (PSR sort gate): high polyreactivity

## QVQLVESGGGLVQAGGSLRLSCAASGFTLQGYAMGWYRQAPGKERELVAAIRWIGTSTYYADSVKGRFTISRDIAKNTVYLQMNSLKPEDTAVYYCAAYRYNTPFGYWGQGTQVTVSS
  polyreactivity (PSR sort gate): high polyreactivity

## QVQLVESGGGLVQAGGSLRLSCAASGFTLQVYDMGWYRQAPGKERELVADISGSGDSTNYADSVKGRFTISRDNAKNTVYLQMNSLKPEDTAVYYCAAEVRGGYYGYDYWGQGTQVTVSS
  polyreactivity (PSR sort gate): low polyreactivity

## QVQLVESGGGLVQAGGSLRLSCAASGFTLRLYTMGWYIQAPGKERELVAAISRSGGSTYYADSVKGRFTISRDNAKNTVYLQMNSLKPEDPAVYYCNAKNGRPGFNMYHWGQGTQVTVSS
  polyreactivity (PSR sort gate): high polyreactivity

## QVQLVESGGGLVQAGGSLRLSCAASGFTLRRNAIGWYRQAPGKERELVAAISSSGSTYYADSVKGRFTISRDNAKNTVYLQMYSLKPEDTAVYYCAAQPGRRAGRSGFDYWGQGTQVNVSS
  polyreactivity (PSR sort gate): high polyreactivity

## QVQLVESGGGLVQAGGSLRLSCAASGFTLSRYVMGWYRQAPGKERELVATISTDTGDTYYADSVKGRFTISRDNAKNTVYLQMNSLKPEDTAVYYCAVEEWYIYLDLYWSYYYWGQGTQVTVSS
  polyreactivity (PSR sort gate): high polyreactivity

## QVQLVESGGGLVQAGGSLRLSCAASGFTLSYYAMGWYRQAPGKERELVAAMTWSDTSTYYADSVKGRFTISRDKAKNTVYVQMNSLKPEDTAVYYCAAEDEWVTWGWGYYYWGQGTQVTVSS
  polyreactivity (PSR sort gate): high polyreactivity

## QVQLVESGGGLVQAGGSLRLSCAASGFTLWLNAMGWYRQAPGKERELVAAITTSDDGTYYADSVKGRFTISRDNAKKTVYLQMNSLKPEDTAVYYCAADYYSVLYDYWGQGTQVTVSS
  polyreactivity (PSR sort gate): low polyreactivity

## QVQLVESGGGLVQAGGSLRLSCAASGFTLYYYDKGWYRQSPGKERELVAAISYSGGTTYYADSVKGRFTISRDNAKNTVYLQMNSLNPDDTAVYYCAAEVGGYWADEYLGYDYWGLGTQVTVSS
  polyreactivity (PSR sort gate): low polyreactivity

## QVQLVESGGGLVQAGGSLRLSCAASGFTRIYAMGWYRQAPGKERELVAAISQRGGRTYYADSVKGRFTISRDNAKNTVYLQMNSLKPEDTAVYYCAVRGPYQGRTRYYYWGQGTQVTVSS
  polyreactivity (PSR sort gate): high polyreactivity

## QVQLVESGGGLVQAGGSLRLSCAASGFTSDAYAMGCYRQAPGKDRELVAAISGSGDITYYADSVKGRFTISRDNAKYTVYFQMNSLKPEDTAVYYCSVGSYYAWFYYWGQGTQVTVSS
  polyreactivity (PSR sort gate): high polyreactivity

## QVQLVESGGGLVQAGGSLRLSCAASGFTSEYNAMGWYRQAPGNERELVAAITSGGSTYYADSVEGRFTISRDNAKNTVYLQMNSLKPEDTAVDYCAADYYVWGYLLEYGGQGTQVTVSS
  polyreactivity (PSR sort gate): high polyreactivity

## QVQLVESGGGLVQAGGSLRLSCAASGFTSLIYAMGWSRQAPGKESELVATITWGGGSTYADSVKGRFTISRDNAKNTVYLQMNSLKPEDTAVYYCNADIYDSWDYATVYSDRYDYWGQGTQVTVSS
  polyreactivity (PSR sort gate): low polyreactivity

## QVQLVESGGGLVQAGGSLRLSCAASGFTSLVNAMGWYRQAPGKERELVAAITGGGSTNYADSVKGRFTISRDNAKNTVYLQMNSLKPEDTAVYYCNAVGYYGYPRIPQFYAFAFYYWGQGTQVTVSS
  polyreactivity (PSR sort gate): low polyreactivity

## QVQLVESGGGLVQAGGSLRLSCAASGFTSNYYAMGWYRQAPGKERELVAAITTGGSTHYADSVKGRFTISRDNAKNTVYLQMNSLKPEDTAVYYCAAGTNRQQQRYFHHGGYYQYNYWGQGTQVTVSS
  polyreactivity (PSR sort gate): low polyreactivity

## QVQLVESGGGLVQAGGSLRLSCAASGFTSSQYAMGWYRQAPGKERELVAAITSSGSSTYYADSVKGRFTISRDNAKNTVYLQMNSLKPEDTAVYYCNTDAYHRYPGSVWYYYWGQGTQVTVSS
  polyreactivity (PSR sort gate): high polyreactivity

## QVQLVESGGGLVQAGGSLRLSCAASGFTSWQYAMGWSIQAPGKERELVAAISVSGASTYYADSVKGRFTISRDNAKNTVYLQMNSLKPEDTAVYYCAAAYVRYPTTRYYYWGQGTQVTVSS
  polyreactivity (PSR sort gate): high polyreactivity

## QVQLVESGGGLVQAGGSLRLSCAASGFTVGYNAMGWYRQAPGKERELVAAIDKRGDSTYADSVKGRFTISRDNAKNTVYLQMNSLKPEDTAVYYCAADSDSKYNYGFLWDTYESWGQGTQVTVSS
  polyreactivity (PSR sort gate): low polyreactivity

## QVQLVESGGGLVQAGGSLRLSCAASGFTVTWYAMAWYRQAPGKERELVASISRSGGSTYYADSVKGRFTISRDNAKNTVSLQMISLKPEDSAVYYCAAVSRTRSYDYWRQGTQVTVSS
  polyreactivity (PSR sort gate): high polyreactivity

## QVQLVESGGGLVQAGGSLRLSCAASGFTVYKYVKGWYRQAPGKERELVAAITTSGGSTYYADSVKGRFTISRDNPKNTVYLQMNSLKPEDTAVYYCNARSLHTSEGDYWGQGTQVTVSS
  polyreactivity (PSR sort gate): low polyreactivity

## QVQLVESGGGLVQAGGSLRLSCAASGFTYGSNAMGWYRQAPGKERELVATISRRGGRTYYADSVKGRFTISRDNAKNTVYLQMNSLKPEDTAVYYCAADRSRPGYDYWGQGTQVTVSS
  polyreactivity (PSR sort gate): high polyreactivity

## QVQLVESGGGLVQAGGSLRLSCAASGFTYLYNAMGWYRQAPGKERELVASINSGGSTNYADSVKGRFTISRDNAKNSVYLQMNSLKPEDTAVYFCNAKRLVRKGDYWGQGTQVTVSS
  polyreactivity (PSR sort gate): low polyreactivity

## QVQLVESGGGLVQAGGSLRLSCAASGFTYRYYTMGLYRQAPGKERELVAAINTSGAGTYYADSVKGRFTISRDNAKNTVYLQMNSLKPEDTAVYYCAATWYGLDYNYWGQGTQVTVSS
  polyreactivity (PSR sort gate): high polyreactivity

## QVQLVESGGGLVQAGGSLRLSCAASGFTYYVNAMGWYRPAPGKERELDAAISSSGTRTYYADSVKGRFTISRDNAKNTVYLQMNSLKPEDTAVYYCAARGQAYSGDRMYYWGQGTQVTVSS
  polyreactivity (PSR sort gate): high polyreactivity

## QVQLVESGGGLVQAGGSLRLSCAASGFYFYSYAMGGYRQAPGKERELVAVISGSGGSTYYADSVKGRFTISRDNAKNTVYLQMNSLKPEDTAVYYCAARNQGNIYGYWGQGTQVTVSS
  polyreactivity (PSR sort gate): high polyreactivity

## QVQLVESGGGLVQAGGSLRLSCAASGFYGNAMGWYRQAPGKERELVAAITWSGGSTYYADSVKGRFTISRDNAKNTVYLQMNSLKPEDTAVYYCNKLQHRKYNGYDYWGQGTQVTVSS
  polyreactivity (PSR sort gate): high polyreactivity

## QVQLVESGGGLVQAGGSLRLSCAASGFYYGIGWYRQAPGTERELVAVITRGGSTNYADSVKGRFTISRDNAKNTVYLQMISLKPEDTAVYYCAARLYWAYRYGSWGQGSQVTVSS
  polyreactivity (PSR sort gate): high polyreactivity

## QVQLVESGGGLVQAGGSLRLSCAASGGIFAYNAMGWYRQAPGKERELVASISSGGNTYYADSVKGRFTISRDNAKNTVYLQMNSLKPEDTAVYYCNARFYRSWRRFSREPGYNYWGQGTQVTVSS
  polyreactivity (PSR sort gate): high polyreactivity

## QVQLVESGGGLVQAGGSLRLSCAASGGIFAYYAMGWYRQAPGKERELVAAITSRGGRTYYADSVKGRFTISRDNAKNTVYLQMNSLKPEDTAVYYCNAERFWPWDYDYWGQGTQVTVSS
  polyreactivity (PSR sort gate): high polyreactivity

## QVQLVESGGGLVQAGGSLRLSCAASGGIFDINAMGWYRQAPGKERELVAAITQSGGSTYYADSVKGRFTISRDNAKKTVYLQMNSLKPEDTAVYYCAKAVWYQGFDYWGQGTQVTVSS
  polyreactivity (PSR sort gate): high polyreactivity

## QVQLVESGGGLVQAGGSLRLSCAASGGIFDSYAMGWYRQAPGKERELVAAISWSGDRTYYADSVKGRFTISRDNAKNTVYLQMISLKPEDTAVYYCAADDGYTYGEGYYWGQGTQVTVSS
  polyreactivity (PSR sort gate): high polyreactivity

## QVQLVESGGGLVQAGGSLRLSCAASGGIFFPNAMGWYRQAPGKERELVAAISWSAGSTYYADSVKGRFTISRDHAKNTVDLQMNSLKPEDTAVYYCPAAGSNYTVWYGYYYWGQGTQVTVSS
  polyreactivity (PSR sort gate): low polyreactivity

## QVQLVESGGGLVQAGGSLRLSCAASGGIFFSNVMGWYRQAPGKERELVAAITSGDNTNYADSVKGRFTISRDNAKNTVYLQMNSLKPEDTAVYYCNADVASEYSDKYDYWGQGTQVTVSS
  polyreactivity (PSR sort gate): low polyreactivity

## QVQLVESGGGLVQAGGSLRLSCAASGGIFFSYAMGWYRQAPGKERELVAAIRTNGGTTYYADSVKGRFTISRDNAKNTVYLQMNSLKPEDTAVYYCAAKQFSVTLSNYWGQGTQVTVSS
  polyreactivity (PSR sort gate): low polyreactivity

## QVQLVESGGGLVQAGGSLRLSCAASGGIFGGYAMGWYRQAPGKDREFVAAISRRGGSTYYADSVKGRFTISRDNAKNTVYLQMNSLKPEDTAVYYCAADRYPSLYDYWGQGTQVTVSS
  polyreactivity (PSR sort gate): high polyreactivity

## QVQLVESGGGLVQAGGSLRLSCAASGGIFGGYAMGWYRQAPRKERELVATITSGTSTNYADSVKGRFTISRDNAKNTVYLQMNSLKPEDTAVYYCNAGGVYPRFTFLEQGYEMEYWGQGTQVTVSS
  polyreactivity (PSR sort gate): low polyreactivity

## QVQLVESGGGLVQAGGSLRLSCAASGGIFGHYGMGWYRQAPGQERELVASISWNGGSTYYADSVKGRFTSSRDNAKNTVYLQMNSLKPEDTAVYYCAARAIWLRYVGYTYYYWGQGTQVTVSS
  polyreactivity (PSR sort gate): high polyreactivity

## QVQLVESGGGLVQAGGSLRLSCAASGGIFGINAMGWYRQAPWKERELVSAINLSGGRTYYADSVKGRFTISRDNSKNTVYLHMNSLKPEDTAVYYCAAYYGYSLYGHYEYWGQGTQVTVSS
  polyreactivity (PSR sort gate): high polyreactivity

## QVQLVESGGGLVQAGGSLRLSCAASGGIFGKYAMGWYRQAPGKERELVAAITSSGGSTFYADSVKGRFTNSRDNAKNTVYLQMNSLKPEDTAVYYCAARFSSYVRRYYYWGQGTQVTVSS
  polyreactivity (PSR sort gate): high polyreactivity

## QVQLVESGGGLVQAGGSLRLSCAASGGIFGLYTMGWYRQAPGKERELVAAISKTGGSTYYADSVKGRFTISRDNAKNTVYLQMNSLNPEDTAVYYCAADGPYDDYEYWGQGTQVTVSS
  polyreactivity (PSR sort gate): high polyreactivity

## QVQLVESGGGLVQAGGSLRLSCAASGGIFGRYAMGWYRQAPGKERELVAAISSRGGSTYYADSVKGRFTISRDNAKNTVYLQMNSLKPEDTAVYYCNALWVSYYTFRMDYWGQGTQVTVSS
  polyreactivity (PSR sort gate): high polyreactivity
